Test results: patent US20130059388

Key:
[1] = tested on: MAPRE3 ZFN of pair 31/32 (second) (synthetic); test: cell_activity; settings: Cel-1 efficiency of ZFN pair 31/32; no productive tag integration
[2] = tested on: MAPRE3 ZFN of pair 31/32 (first) (synthetic); test: cell_activity; settings: Cel-1 efficiency of ZFN pair 31/32; no productive tag integration

| Sequence | activity [1] [%] | activity [2] [%] |
| --- | --- | --- |
| AGGAAGGATTCGCAC (double strand) [MAPRE3 half-site 2] | 21 |  |
| TTCCTCTCTCTCCCAC (double strand) [MAPRE3 half-site 1] |  | 21 |
